T1: MPDZ_10, O75970
T1 sequence (O75970 1624-1722, limits assumed, looked up): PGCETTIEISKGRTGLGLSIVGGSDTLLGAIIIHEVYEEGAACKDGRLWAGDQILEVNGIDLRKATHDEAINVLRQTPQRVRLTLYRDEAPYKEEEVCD

T2: TX1BP3, O14907
T2 sequence (O14907 10-122, limits assumed, looked up): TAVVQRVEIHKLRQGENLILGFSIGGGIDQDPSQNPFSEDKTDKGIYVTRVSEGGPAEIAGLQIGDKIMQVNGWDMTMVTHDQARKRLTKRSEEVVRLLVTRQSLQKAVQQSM

T3: MPP2, Q14168
T3 sequence (Q14168 180-250, limits assumed, looked up): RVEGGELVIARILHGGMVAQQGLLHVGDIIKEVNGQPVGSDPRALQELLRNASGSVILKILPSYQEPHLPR

T4: LIN7A, O14910
T4 sequence (O14910 103-200, limits assumed, looked up): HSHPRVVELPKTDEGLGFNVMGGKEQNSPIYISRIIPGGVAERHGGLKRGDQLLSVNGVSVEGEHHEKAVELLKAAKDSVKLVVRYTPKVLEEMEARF

T5: PCLO, Q9Y6V0
T5 sequence (Q9Y6V0 4491-4600, limits assumed, looked up): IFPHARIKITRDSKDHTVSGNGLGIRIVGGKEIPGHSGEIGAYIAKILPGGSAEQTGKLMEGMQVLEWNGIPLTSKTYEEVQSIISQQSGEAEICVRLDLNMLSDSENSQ

T6: RADIL, Q96JH8
T6 sequence (Q96JH8 971-1071, limits assumed, looked up): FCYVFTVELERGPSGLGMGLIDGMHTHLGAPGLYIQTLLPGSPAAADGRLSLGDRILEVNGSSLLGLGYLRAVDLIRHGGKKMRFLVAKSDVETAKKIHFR

T7: DFNB31_1, Q9P202
T7 sequence (Q9P202 135-233, limits assumed, looked up): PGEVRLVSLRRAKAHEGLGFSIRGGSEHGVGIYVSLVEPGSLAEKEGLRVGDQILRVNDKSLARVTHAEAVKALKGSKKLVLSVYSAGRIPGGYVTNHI

T8: NHERF3_4, Q5T2W1
T8 sequence (Q5T2W1 373-468, limits assumed, looked up): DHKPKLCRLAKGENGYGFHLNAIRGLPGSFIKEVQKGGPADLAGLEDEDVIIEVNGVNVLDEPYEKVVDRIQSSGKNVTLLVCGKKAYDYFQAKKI

T9: HTRA4, P83105
T9 sequence (P83105 378-476, limits assumed, looked up): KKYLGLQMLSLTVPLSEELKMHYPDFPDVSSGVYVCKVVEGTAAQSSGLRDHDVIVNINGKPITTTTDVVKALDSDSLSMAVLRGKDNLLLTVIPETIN

T10: LNX2_2, Q8N448
T10 sequence (Q8N448 334-432, limits assumed, looked up): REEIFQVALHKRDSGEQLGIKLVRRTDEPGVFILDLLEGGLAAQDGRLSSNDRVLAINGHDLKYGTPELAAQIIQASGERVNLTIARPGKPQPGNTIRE

T11: ARHGEF11, O15085
T11 sequence (O15085 42-136, limits assumed, looked up): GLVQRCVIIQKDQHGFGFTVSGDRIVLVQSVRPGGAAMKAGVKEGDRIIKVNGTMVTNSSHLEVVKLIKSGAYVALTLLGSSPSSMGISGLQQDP

T12: GRIP1_7, Q9Y3R0
T12 sequence (Q9Y3R0 999-1096, limits assumed, looked up): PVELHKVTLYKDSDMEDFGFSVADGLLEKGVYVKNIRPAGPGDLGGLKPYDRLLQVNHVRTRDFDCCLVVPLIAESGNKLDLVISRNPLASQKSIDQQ

B1: ACTN2, P35609 (peptide)
chain: SSALYGESDL
B2: LPXN, O60711 (peptide)
chain: QPCFNKLFPL
B3: CCDC134, Q9H6E4 (peptide)
chain: PRISRSQSEL

The binders below were run against T1, MPDZ_10, O75970 (assay: holdup assay). Settings: plain residues with an end cap or a label only (N-terminal biotin on a linker: ado-ado).
Set-up: key: below the threshold = too weak to quantify, mostly under pKd 3.1 to 4

pKd	Binder
below the threshold	B1
below the threshold	B2
below the threshold	B3

These binders were tested against T2, TX1BP3, O14907 (assay: holdup assay). Settings: plain residues with an end cap or a label only (N-terminal biotin on a linker: ado-ado).
Set-up: key: below the threshold = too weak to quantify, mostly under pKd 3.1 to 4

pKd	Binder
4.9	B1
below the threshold	B2
3.52	B3

What follows are binders tested against T3, MPP2, Q14168 (assay: holdup assay). Settings: plain residues with an end cap or a label only (N-terminal biotin on a linker: ado-ado).
Set-up: key: below the threshold = too weak to quantify, mostly under pKd 3.1 to 4

pKd	Binder
below the threshold	B1
below the threshold	B2
below the threshold	B3

The binders below were run against T4, LIN7A, O14910 (assay: holdup assay). Settings: plain residues with an end cap or a label only (N-terminal biotin on a linker: ado-ado).
Set-up: key: below the threshold = too weak to quantify, mostly under pKd 3.1 to 4

pKd	Binder
below the threshold	B1
below the threshold	B2
3.52	B3

Each binder was assayed against T5, PCLO, Q9Y6V0 (assay: holdup assay). Settings: plain residues with an end cap or a label only (N-terminal biotin on a linker: ado-ado).
Set-up: key: below the threshold = too weak to quantify, mostly under pKd 3.1 to 4

pKd	Binder
below the threshold	B1
below the threshold	B2
below the threshold	B3

Each binder was assayed against LNX1_3, Q8TBB1 (assay: holdup assay). Settings: plain residues with an end cap or a label only (N-terminal biotin on a linker: ado-ado).
Set-up: key: below the threshold = too weak to quantify, mostly under pKd 3.1 to 4

Sequence of LNX1_3, Q8TBB1 (Q8TBB1 500-596): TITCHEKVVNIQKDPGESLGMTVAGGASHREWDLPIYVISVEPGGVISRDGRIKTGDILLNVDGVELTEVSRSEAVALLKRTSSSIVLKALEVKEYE

pKd	Binder
below the threshold	B1
below the threshold	B2
below the threshold	B3

These binders were tested against T6, RADIL, Q96JH8 (assay: holdup assay). Settings: plain residues with an end cap or a label only (N-terminal biotin on a linker: ado-ado).
Set-up: key: below the threshold = too weak to quantify, mostly under pKd 3.1 to 4

pKd	Binder
below the threshold	B1
below the threshold	B2
below the threshold	B3

The binders below were run against MAGI1_1, Q96QZ7 (assay: holdup assay). Settings: plain residues with an end cap or a label only (N-terminal biotin on a linker: ado-ado).
Set-up: key: below the threshold = too weak to quantify, mostly under pKd 3.1 to 4

Sequence of MAGI1_1, Q96QZ7 (Q96QZ7 1-106): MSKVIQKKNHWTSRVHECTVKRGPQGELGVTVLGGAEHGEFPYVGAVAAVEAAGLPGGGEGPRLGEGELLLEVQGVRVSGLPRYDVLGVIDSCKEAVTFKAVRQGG

pKd	Binder
below the threshold	B1
3.74	B2
below the threshold	B3

What follows are binders tested against T7, DFNB31_1, Q9P202 (assay: holdup assay). Settings: plain residues with an end cap or a label only (N-terminal biotin on a linker: ado-ado).
Set-up: key: below the threshold = too weak to quantify, mostly under pKd 3.1 to 4

pKd	Binder
below the threshold	B1
below the threshold	B2
below the threshold	B3

These binders were tested against GOPC, Q9HD26 (assay: holdup assay). Settings: plain residues with an end cap or a label only (N-terminal biotin on a linker: ado-ado).
Set-up: key: below the threshold = too weak to quantify, mostly under pKd 3.1 to 4

pKd	Binder
below the threshold	B1
below the threshold	B2
below the threshold	B3

These binders were tested against FRMPD2_2, Q68DX3 (assay: holdup assay). Settings: plain residues with an end cap or a label only (N-terminal biotin on a linker: ado-ado).
Set-up: key: below the threshold = too weak to quantify, mostly under pKd 3.1 to 4

Sequence of FRMPD2_2, Q68DX3 (Q68DX3 944-1038): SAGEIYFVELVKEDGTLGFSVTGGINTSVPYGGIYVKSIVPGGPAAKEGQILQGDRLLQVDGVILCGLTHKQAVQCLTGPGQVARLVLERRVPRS

pKd	Binder
below the threshold	B1
below the threshold	B2
below the threshold	B3

These binders were tested against MAGI3_2, Q5TCQ9 (assay: holdup assay). Settings: plain residues with an end cap or a label only (N-terminal biotin on a linker: ado-ado).
Set-up: key: below the threshold = too weak to quantify, mostly under pKd 3.1 to 4

Sequence of MAGI3_2, Q5TCQ9 (Q5TCQ9 398-503): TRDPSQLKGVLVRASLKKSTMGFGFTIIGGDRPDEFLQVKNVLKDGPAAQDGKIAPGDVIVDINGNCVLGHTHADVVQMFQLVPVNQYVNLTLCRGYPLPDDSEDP

pKd	Binder
below the threshold	B1
below the threshold	B2
4.25	B3

What follows are binders tested against Inadl_5, Q8NI35 (assay: holdup assay). Settings: plain residues with an end cap or a label only (N-terminal biotin on a linker: ado-ado).
Set-up: key: below the threshold = too weak to quantify, mostly under pKd 3.1 to 4

Sequence of Inadl_5, Q8NI35 (Q8NI35 673-780): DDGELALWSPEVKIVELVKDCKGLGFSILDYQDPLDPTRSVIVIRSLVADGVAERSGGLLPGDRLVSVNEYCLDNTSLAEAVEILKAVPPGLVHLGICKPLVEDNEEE

pKd	Binder
below the threshold	B1
below the threshold	B2
below the threshold	B3

What follows are binders tested against T8, NHERF3_4, Q5T2W1 (assay: holdup assay). Settings: plain residues with an end cap or a label only (N-terminal biotin on a linker: ado-ado).
Set-up: key: below the threshold = too weak to quantify, mostly under pKd 3.1 to 4

pKd	Binder
below the threshold	B1
3.73	B2
below the threshold	B3

These binders were tested against Inadl_9, Q8NI35 (assay: holdup assay). Settings: plain residues with an end cap or a label only (N-terminal biotin on a linker: ado-ado).
Set-up: key: below the threshold = too weak to quantify, mostly under pKd 3.1 to 4

Sequence of Inadl_9, Q8NI35 (Q8NI35 1530-1615): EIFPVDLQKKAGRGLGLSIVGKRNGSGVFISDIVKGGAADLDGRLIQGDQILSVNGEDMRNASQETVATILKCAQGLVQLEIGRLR

pKd	Binder
below the threshold	B1
below the threshold	B2
below the threshold	B3

The binders below were run against T9, HTRA4, P83105 (assay: holdup assay). Settings: plain residues with an end cap or a label only (N-terminal biotin on a linker: ado-ado).
Set-up: key: below the threshold = too weak to quantify, mostly under pKd 3.1 to 4

pKd	Binder
below the threshold	B1
3.95	B2
below the threshold	B3

These binders were tested against IL16_3, Q14005 (assay: holdup assay). Settings: plain residues with an end cap or a label only (N-terminal biotin on a linker: ado-ado).
Set-up: key: below the threshold = too weak to quantify, mostly under pKd 3.1 to 4

Sequence of IL16_3, Q14005 (Q14005 1107-1207): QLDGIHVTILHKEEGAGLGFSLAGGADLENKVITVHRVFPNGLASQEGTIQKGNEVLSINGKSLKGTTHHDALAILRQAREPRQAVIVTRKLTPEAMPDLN

pKd	Binder
below the threshold	B1
below the threshold	B2
below the threshold	B3

Each binder was assayed against T10, LNX2_2, Q8N448 (assay: holdup assay). Settings: plain residues with an end cap or a label only (N-terminal biotin on a linker: ado-ado).
Set-up: key: below the threshold = too weak to quantify, mostly under pKd 3.1 to 4

pKd	Binder
below the threshold	B1
below the threshold	B2
below the threshold	B3

The binders below were run against TJP1_2, Q07157 (assay: holdup assay). Settings: plain residues with an end cap or a label only (N-terminal biotin on a linker: ado-ado).
Set-up: key: below the threshold = too weak to quantify, mostly under pKd 3.1 to 4

Sequence of TJP1_2, Q07157 (Q07157 181-274): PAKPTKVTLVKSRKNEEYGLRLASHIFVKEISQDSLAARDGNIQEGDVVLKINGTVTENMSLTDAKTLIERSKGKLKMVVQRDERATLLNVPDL

pKd	Binder
below the threshold	B1
below the threshold	B2
below the threshold	B3

Each binder was assayed against T11, ARHGEF11, O15085 (assay: holdup assay). Settings: plain residues with an end cap or a label only (N-terminal biotin on a linker: ado-ado).
Set-up: key: below the threshold = too weak to quantify, mostly under pKd 3.1 to 4

pKd	Binder
below the threshold	B1
below the threshold	B2
3.88	B3

These binders were tested against FRMPD2_1, Q68DX3 (assay: holdup assay). Settings: plain residues with an end cap or a label only (N-terminal biotin on a linker: ado-ado).
Set-up: key: below the threshold = too weak to quantify, mostly under pKd 3.1 to 4

Sequence of FRMPD2_1, Q68DX3 (Q68DX3 770-861): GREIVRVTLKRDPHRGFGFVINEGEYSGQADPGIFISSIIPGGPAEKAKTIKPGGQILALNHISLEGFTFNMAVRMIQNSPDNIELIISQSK

pKd	Binder
below the threshold	B1
below the threshold	B2
below the threshold	B3

The binders below were run against Inadl_10, Q8NI35 (assay: holdup assay). Settings: plain residues with an end cap or a label only (N-terminal biotin on a linker: ado-ado).
Set-up: key: below the threshold = too weak to quantify, mostly under pKd 3.1 to 4

Sequence of Inadl_10, Q8NI35 (Q8NI35 1673-1763): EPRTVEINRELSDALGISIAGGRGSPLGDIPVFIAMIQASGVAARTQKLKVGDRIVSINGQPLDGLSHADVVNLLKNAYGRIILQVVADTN

pKd	Binder
below the threshold	B1
below the threshold	B2
below the threshold	B3

The binders below were run against T12, GRIP1_7, Q9Y3R0 (assay: holdup assay). Settings: plain residues with an end cap or a label only (N-terminal biotin on a linker: ado-ado).
Set-up: key: below the threshold = too weak to quantify, mostly under pKd 3.1 to 4

pKd	Binder
below the threshold	B1
below the threshold	B2
below the threshold	B3

What follows are binders tested against TJP2_1, Q9UDY2 (assay: holdup assay). Settings: plain residues with an end cap or a label only (N-terminal biotin on a linker: ado-ado).
Set-up: key: below the threshold = too weak to quantify, mostly under pKd 3.1 to 4

Sequence of TJP2_1, Q9UDY2 (Q9UDY2 24-128): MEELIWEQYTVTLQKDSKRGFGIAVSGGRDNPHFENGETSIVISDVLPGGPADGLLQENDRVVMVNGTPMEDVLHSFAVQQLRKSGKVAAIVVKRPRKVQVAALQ

pKd	Binder
below the threshold	B1
below the threshold	B2
below the threshold	B3

What follows are binders tested against MAGI1_2, Q96QZ7 (assay: holdup assay). Settings: plain residues with an end cap or a label only (N-terminal biotin on a linker: ado-ado).
Set-up: key: below the threshold = too weak to quantify, mostly under pKd 3.1 to 4

Sequence of MAGI1_2, Q96QZ7 (Q96QZ7 456-580): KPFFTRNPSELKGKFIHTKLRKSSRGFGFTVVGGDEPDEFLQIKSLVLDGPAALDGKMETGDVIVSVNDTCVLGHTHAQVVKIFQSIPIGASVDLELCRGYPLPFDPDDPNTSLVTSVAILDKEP

pKd	Binder
below the threshold	B1
below the threshold	B2
4.13	B3
